These results are taken from US20050053990.

Common to all, as to test: cleavage_in_vitro
One data set relates to AvaII. Particulars: DNA strand 100% cleaved; NEBuffer 4 (Mg2+), 37 C, 4 h; Table 1 does not name the oligos.
The subject of another data set is BtsI. Particulars: DNA strand 100% cleaved.
The test system of another data set is Sau3AI. Particulars: DNA strand 0% cleaved.
In a further data set the test system is SfaNI. Particulars: DNA strand 100% cleaved.
Another data set has as its system Cac8I. As to conditions: DNA strand 100% cleaved; NEBuffer 3, 37 C, 4 h; Table 1 does not name the oligos.

In the data set with AvaII, “AAAGCUAAGCGGACCGAGUCGACUGCAUCGUCAUGAAAAAA / TTTTTTCATGACGATGCAGTCGACTCGGTCCGCTTAGCTTT [A/B RNA/DNA duplex]” displayed an activity (% RNA strand cleaved) of 100.

With BtsI site RNA/DNA duplex, the activity (% RNA strand cleaved) in the data set with BtsI worked out at 70. Regarding Sau3AI site RNA/DNA duplex, in the data set with Sau3AI, the activity (% RNA strand cleaved) was 80. Turning to SfaNI site RNA/DNA duplex, in the data set with SfaNI, the activity (% RNA strand cleaved) worked out at 100. On to “UAAAGGCGCGCCCGCAUGCUUUA / TAAAGCATGCGGGCGCGCCTTTA [I/L RNA/DNA duplex]”, for which the activity (% RNA strand cleaved) in the data set with Cac8I came to 100.
